Results reported in publication PMC3203580.

Assays:
[1] = target: T1, rhSmad1 MH1 (Homo sapiens, UniProt Q15797 1-143); assay: competition
[2] = target: T1, rhSmad1 MH1; assay: competition; remark: listed apart in the source
[3] = target: T1, rhSmad1 MH1; assay: EMSA

T1 sequence (Q15797 1-143): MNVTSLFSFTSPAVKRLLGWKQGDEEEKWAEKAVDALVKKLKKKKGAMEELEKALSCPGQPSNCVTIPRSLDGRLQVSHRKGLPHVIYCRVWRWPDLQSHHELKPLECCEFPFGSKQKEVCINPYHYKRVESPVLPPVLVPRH

B1: GC-SBE Cmut (GGCGCC) (dsDNA)
DNA 1: ACAGCTCTGGCGCCAGATGGCCTGG
DNA 2: CCAGGCCATCTGGCGCCAGAGCTGT
B1: binds [1].

B2: GC-SBE mut (dsDNA)
DNA 1: ACAGCTCTAGATCCAGATGGCCTGG
DNA 2: CCAGGCCATCTGGATCTAGAGCTGT
B2: no binding [2].

B3: GC-SBE WT (dsDNA)
DNA 1: ACAGCTCTGGAGCCAGATGGCCTGG
DNA 2: CCAGGCCATCTGGCTCCAGAGCTGT
B3: binds [3].
